{"source": "paper PMC8989981", "about": "“Negative feedback of SNRK to circ-SNRK regulates cardiac function post-myocardial infarction” (Cell Death and Differentiation, 2021)", "proteins": {"B1": {"name": "NOVA1 (NOVA alternative splicing regulator 1) (natural protein, rat (endogenous in NRCMs), UniProt Q80WA4 1-474, looked up)", "chain": "MAAAPIQQNGTHTGVPIDLDPPDSRKRPLEAPPEAGSTKRTNTGEDGQYFLKVLIPSYAAGSIIGKGGQTIVQLQKETGATIKLSKSKDFYPGTTERVCLIQGTIEALNAVHGFIAEKIREMPQNVAKTEPVSILQPQTTVNPDRIKQVKIIVPNSTAGLIIGKGGATVKAIMEQSGAWVQLSQKPDGINLQERVVTVSGEPEQNRKAVELIIQKIQEDPQSGSCLNISYANVTGPVANSNPTGFPYANTAEVLPTAAAAAGLLGHANLAGVAAFPAVLSGFTGNDLVAITSALNTLASYGYNLNTLGLGLSQAAATGALAAAAASANPAAAAANLLATYASEASASGSTAGGTAGTFALGSLAAATAATNGYFGAASPLAASAILGTEKSTDGSKDVVEIAVPENLVGAILGKGGKTLVEYQELTGARIQISKKGEFVPGTRNRKVTITGTPAATQAAQYLITQRITYEQGVR", "notes": "NOVA1 (NOVA alternative splicing regulator 1), rat, as present in neonatal rat cardiomyocytes; also called protein NOVA1; source: endogenous, NRCMs (neonatal rat cardiomyocytes), in lysate / total protein"}}, "biological_target": "the molecule itself", "test": "native gel or EMSA; Native-PAGE of total protein from NRCMs, blotted with anti-NOVA1", "data": [{"protein": "B1", "values": [{"measurement": "stoichiometry N", "result": 2}]}]}
